Experimental data published in US8153410B2, “Alternate morpheein forms of allosteric proteins as a target for the development of bioactive molecules” (Fox Chase Cancer Center, priority 2003, dated 2012).
Where two headings read alike, the source gives them in different places. Marks after values point to notes of the source that are not given here.

What was measured:
pea PBGS = target: T1, pea PBGS (Pisum sativum, UniProt P30124); conditions: read-out: Kd for the allosteric magnesium of pea PBGS; cited from earlier work
T1 sequence (P30124 69-398 limits assumed): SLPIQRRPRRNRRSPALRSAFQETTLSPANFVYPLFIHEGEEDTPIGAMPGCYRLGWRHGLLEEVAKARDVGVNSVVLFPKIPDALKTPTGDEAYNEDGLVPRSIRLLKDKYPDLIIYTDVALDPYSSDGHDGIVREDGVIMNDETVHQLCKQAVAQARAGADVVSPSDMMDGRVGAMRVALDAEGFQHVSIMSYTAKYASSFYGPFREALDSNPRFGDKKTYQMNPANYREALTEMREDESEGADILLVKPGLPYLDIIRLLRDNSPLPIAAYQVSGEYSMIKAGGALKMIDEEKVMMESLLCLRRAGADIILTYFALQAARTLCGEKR

human PBGS [1] = target: T2, human PBGS (Homo sapiens, UniProt P13716, C162A/K59N); experiment: kinetic characterization (Km, Vmax, specific activity) of human PBGS variants with substrate ALA; assay type: biochemical; conditions: pH 9; Table 1; hexamer component
T2 construct: made in house; host or cells: E. coli BLR(DE3)
T2 sequence (P13716 1-330 K59N/C162A): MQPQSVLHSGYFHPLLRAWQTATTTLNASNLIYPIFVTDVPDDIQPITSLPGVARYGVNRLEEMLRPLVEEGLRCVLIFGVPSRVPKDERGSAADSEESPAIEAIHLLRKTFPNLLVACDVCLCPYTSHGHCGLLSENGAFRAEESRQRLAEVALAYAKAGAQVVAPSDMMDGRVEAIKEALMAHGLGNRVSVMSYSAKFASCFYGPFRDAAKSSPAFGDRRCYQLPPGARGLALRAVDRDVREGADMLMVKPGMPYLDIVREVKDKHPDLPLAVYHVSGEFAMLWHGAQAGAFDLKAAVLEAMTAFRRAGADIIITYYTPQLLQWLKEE
Procedure: (§1) All kinetic determinations were carried out in 0.1 M bis-tris propane, 10 mM 2-mercaptoethanol, 10 μM Zn. For the pH rate profiles, the reported pH reflects the assay pH after the addition of 10 mM ALA-HCl. For Km and Vmax determinations, concentrations of ALA were 10 μM, 30 μM, 100 μM, 300 μM, 1 mM, 3 mM, and 10 mM and were each done in duplicate. […] All assays were at 37° C. for a fixed time using Ehrlich's reagent to determine porphobilinogen formed.
(§2) The kinetic parameters Km and Vmax of the S300 purified pools were determined at pH 7 and at pH 9 (Table 3 contains data for hetero-hexamers (Pool I) initially at 70% Leu and 30% Phe and for hetero-octamers (Pool II) initially at 30% Leu and 70% Phe). […] With the exception of the trace amount of octamer present for Pool I that is detected at pH 9, all the kinetic values are well determined (see Table 3). […] The factors that govern equilibration of human PBGS heteromers under assay conditions remain to be elucidated.
(§3) Km1 and Km2 (both mM) are interpreted as the Km for the octamer and hexamer, respectively.
(§4) Using freshly prepared hetero-oligomers of WT+F12L, the Pool I and Pool II proteins were separated chromatographically and then dialyzed for 24 hours at pH 7 in the presence of 10 mM ALA. Following dialysis, the re-equilibrated hetero-oligomers were again separated into their hexameric and octameric components by chromatography on a Mono-Q column. The separated proteins were characterized for their specific activity and for their Phe12 and Leu12 content. The specific activity of hexamer and octamer are dramatically different with hexamer showing optimal activity at pH 9 and the activity of octamer is maximal at pH 7 (Table 4). […] Following chromatographic separation, the proteins were called Pool I hexamer, Pool I octamer, Pool II hexamer, and Pool II octamer and are described below. The peak to elute first on the Mono-Q column runs comparably to the F12L mutant, which is the hexamer. The hexameric structure is substantiated by native gel electrophoresis and by specific activity at pH 7 and pH 9 (FIG. 26A and Table 4). The second peak to elute runs comparably to the WT human PBGS, which is the octamer. The octameric structure is substantiated by native gel electrophoresis and specific activity at pH 7 and pH 9 (FIG. 26A and Table 4). Consistent with the documented characteristics of human PBGS hexamers and octamers, Pool I hexamer and Pool II hexamer have very low activity at pH 7 and considerable activity at pH 9. Pool I octamer and Pool II octamer both show substantially higher activity at pH 7 than at pH 9.

human PBGS [2] = experiment: as above; assay type: biochemical
Procedure: as §1, §2, §3, §4

human PBGS [3] = experiment: temperature dependence (Arrhenius plots) of hetero-hexamer to hetero-octamer conversion and of substrate turnover; assay type: biochemical; conditions: pH 7.0, 10 mM ALA-HCl
From the text: To determine the free energy of activation for the conversion of hetero-hexamers to hetero-octamers, we took advantage of the dramatic differences in the activity of octameric (high activity) and hexameric (low activity) human PBGS at pH 7.0 (3, 5). Because of this difference, the transition from purified hetero-hexamers to a mixture of hetero-hexamers and hetero-octamers under turnover conditions is accompanied by a progressive increase in the specific activity; this process was monitored at several temperatures. Starting with purified hetero-hexamers, (FIG. 34a) the specific activity increased, which is fit to a first-order exponential as exemplified in FIG. 35b (5). […] The time-courses for conversion of hetero-hexamer to hetero-octamer were monitored by periodically removing aliquots from the incubations and immediately quantifying porphobilinogen using Ehrlich's reagent and calculating specific activities based on the total incubation time. […] An activation energy for hetero-hexamer to hetero-octamer conversion (Ea=63±5 kJ/mol) was determined from the slope of the plot. […] However, we previously monitored this process at 5 μg/ml and 0.9 mg/ml, two widely different enzyme concentrations, by specific activity increase and dynamic light scattering respectively. […]

[Mg+2] [magnesium]
Kd (pea PBGS): 2500 µM

B1: WT: wild type human PBGS (parent N59/C162A), octameric, expressed in E. coli (protein)
chain: T2 sequence (P13716 1-330 K59N/C162A)
Km2 (human PBGS [1]): 4.46 ± 0.80^a mM | Vmax2 (human PBGS [1]): 6.67 µM/h/mg | Specific activities before and after substrate induced disproportionation (human PBGS [2]; pH 7): 56.9 µmol/h/mg | Km1 (human PBGS [2]; pH 7, Table 1): 0.25 ± 0.01 mM | Vmax1 (human PBGS [2]; pH 7, Table 1): 55.5 ± 0.2 | Vmax1 (human PBGS [2]; pH 7, Table 3): 55.5 ± 0.2 µmol/h/mg | Km (human PBGS [2]; pH 7, Table 3, read-out: Km1 (Km for the octamer)): 250 ± 10 µM | Specific activities before and after substrate induced disproportionation (human PBGS [2]; pH 9): 13.1 µmol/h/mg | Km1 (human PBGS [2]; pH 9, Table 1): 0.015 ± 0.001 mM | Vmax1 (human PBGS [2]; pH 9, Table 1): 8.16 ± 0.13 | Vmax1 (human PBGS [2]; pH 9, Table 3): 8.16 ± 0.13 µmol/h/mg | Vmax2 (human PBGS [2]; pH 9, Table 3): 6.67 ± 0.36 µmol/h/mg | Km (human PBGS [2]; pH 9, Table 3, read-out: Km1 (Km for the octamer)): 15 µM | Km (human PBGS [2]; pH 9, Table 3, read-out: Km2 (Km for the hexamer)): 4460 ± 800 µM | activation energy for substrate turnover (human PBGS [3]): 14.8 ± 0.24 kcal/mol
